Positions of bridges follow the written chain, without caps; N, C: chain ends. Non-standard residues stand in square brackets, D forms with d. No end group written: not given here. 4Pal = N[C@@H](Cc1ccncc1)C(=O)O; Cha = N[C@@H](CC1CCCCC1)C(=O)O; dCha = N[C@H](CC1CCCCC1)C(=O)O; Phg = N[C@H](C(=O)O)c1ccccc1; 4Amb = NCc1ccc(C(=O)O)cc1; Nle = CCCC[C@H](N)C(=O)O; Aib = CC(C)(N)C(=O)O
T1: human Y2 receptor (human, UniProt P49146 1-381)
T1 sequence (looked up): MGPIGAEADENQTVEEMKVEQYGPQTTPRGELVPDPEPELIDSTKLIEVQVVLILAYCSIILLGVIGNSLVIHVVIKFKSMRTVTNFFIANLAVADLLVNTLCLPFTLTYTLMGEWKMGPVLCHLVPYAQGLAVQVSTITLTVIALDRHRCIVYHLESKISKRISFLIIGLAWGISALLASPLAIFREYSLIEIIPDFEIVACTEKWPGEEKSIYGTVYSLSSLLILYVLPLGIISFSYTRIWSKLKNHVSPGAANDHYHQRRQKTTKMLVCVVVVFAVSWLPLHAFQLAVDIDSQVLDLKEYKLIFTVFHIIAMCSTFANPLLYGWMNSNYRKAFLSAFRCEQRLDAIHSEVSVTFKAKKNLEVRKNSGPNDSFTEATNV

B1: Ac-[D-Phe24, Ala26, Ile28,31]-PYY(24-36) (peptide)
peptide: Ac-[dF]RAYINLITRQRY-NH2
SMILES: CC[C@H](C)[C@H](NC(=O)[C@H](Cc1ccc(O)cc1)NC(=O)[C@H](C)NC(=O)[C@H](CCCNC(=N)N)NC(=O)[C@@H](Cc1ccccc1)NC(C)=O)C(=O)N[C@@H](CC(N)=O)C(=O)N[C@@H](CC(C)C)C(=O)N[C@H](C(=O)N[C@H](C(=O)N[C@@H](CCCNC(=N)N)C(=O)N[C@@H](CCC(N)=O)C(=O)N[C@@H](CCCNC(=N)N)C(=O)N[C@@H](Cc1ccc(O)cc1)C(N)=O)[C@@H](C)O)[C@@H](C)CC
notes: also called compound No. 35
B2: 4-Aminomethylbenzoyl-[Ala26, Ile28, Phg31]-PYY(25-36) (peptide)
peptide: [4Amb]RAYINL[Phg]TRQRY-NH2
modifications: N-terminus assumed
SMILES: CC[C@H](C)[C@H](NC(=O)[C@H](Cc1ccc(O)cc1)NC(=O)[C@H](C)NC(=O)[C@H](CCCNC(=N)N)NC(=O)c1ccc(CN)cc1)C(=O)N[C@@H](CC(N)=O)C(=O)N[C@@H](CC(C)C)C(=O)N[C@H](C(=O)N[C@H](C(=O)N[C@@H](CCCNC(=N)N)C(=O)N[C@@H](CCC(N)=O)C(=O)N[C@@H](CCCNC(=N)N)C(=O)N[C@@H](Cc1ccc(O)cc1)C(N)=O)[C@@H](C)O)c1ccccc1
notes: also called compound No. 40
B3: [D-Arg23, Ala26, Ile28,31]-PYY(23-36) (peptide)
peptide: [dR]LRAYINLITRQRY-NH2
modifications: N-terminus assumed
SMILES: CC[C@H](C)[C@H](NC(=O)[C@H](Cc1ccc(O)cc1)NC(=O)[C@H](C)NC(=O)[C@H](CCCNC(=N)N)NC(=O)[C@H](CC(C)C)NC(=O)[C@H](N)CCCNC(=N)N)C(=O)N[C@@H](CC(N)=O)C(=O)N[C@@H](CC(C)C)C(=O)N[C@H](C(=O)N[C@H](C(=O)N[C@@H](CCCNC(=N)N)C(=O)N[C@@H](CCC(N)=O)C(=O)N[C@@H](CCCNC(=N)N)C(=O)N[C@@H](Cc1ccc(O)cc1)C(N)=O)[C@@H](C)O)[C@@H](C)CC
notes: also called compound No. 27
B4: 4-Aminomethylbenzoyl-[Ala26, Ile28, Cha31]-PYY(25-36) (peptide)
peptide: [4Amb]RAYINL[Cha]TRQRY-NH2
modifications: N-terminus assumed
SMILES: CC[C@H](C)[C@H](NC(=O)[C@H](Cc1ccc(O)cc1)NC(=O)[C@H](C)NC(=O)[C@H](CCCNC(=N)N)NC(=O)c1ccc(CN)cc1)C(=O)N[C@@H](CC(N)=O)C(=O)N[C@@H](CC(C)C)C(=O)N[C@@H](CC1CCCCC1)C(=O)N[C@H](C(=O)N[C@@H](CCCNC(=N)N)C(=O)N[C@@H](CCC(N)=O)C(=O)N[C@@H](CCCNC(=N)N)C(=O)N[C@@H](Cc1ccc(O)cc1)C(N)=O)[C@@H](C)O
notes: also called compound No. 41
B5: 4-Aminomethylbenzoyl-[Ala26, Pya(4)27, Ile28,31]-PYY(25-36) (peptide)
peptide: [4Amb]RA[4Pal]INLITRQRY-NH2
modifications: N-terminus assumed
SMILES: CC[C@H](C)[C@H](NC(=O)[C@H](Cc1ccncc1)NC(=O)[C@H](C)NC(=O)[C@H](CCCNC(=N)N)NC(=O)c1ccc(CN)cc1)C(=O)N[C@@H](CC(N)=O)C(=O)N[C@@H](CC(C)C)C(=O)N[C@H](C(=O)N[C@H](C(=O)N[C@@H](CCCNC(=N)N)C(=O)N[C@@H](CCC(N)=O)C(=O)N[C@@H](CCCNC(=N)N)C(=O)N[C@@H](Cc1ccc(O)cc1)C(N)=O)[C@@H](C)O)[C@@H](C)CC
notes: also called compound No. 44
B6: 4-Aminomethylbenzoyl-[Ala26, Nle27, Ile28,31]-PYY(25-36) (peptide)
peptide: [4Amb]RA[Nle]INLITRQRY-NH2
modifications: N-terminus assumed
SMILES: CCCC[C@H](NC(=O)[C@H](C)NC(=O)[C@H](CCCNC(=N)N)NC(=O)c1ccc(CN)cc1)C(=O)N[C@H](C(=O)N[C@@H](CC(N)=O)C(=O)N[C@@H](CC(C)C)C(=O)N[C@H](C(=O)N[C@H](C(=O)N[C@@H](CCCNC(=N)N)C(=O)N[C@@H](CCC(N)=O)C(=O)N[C@@H](CCCNC(=N)N)C(=O)N[C@@H](Cc1ccc(O)cc1)C(N)=O)[C@@H](C)O)[C@@H](C)CC)[C@@H](C)CC
notes: also called compound No. 43
B7: Ac-[Cha24, Ala26, Ile28,31]-PYY(24-36) (peptide)
peptide: Ac-[Cha]RAYINLITRQRY-NH2
SMILES: CC[C@H](C)[C@H](NC(=O)[C@H](Cc1ccc(O)cc1)NC(=O)[C@H](C)NC(=O)[C@H](CCCNC(=N)N)NC(=O)[C@H](CC1CCCCC1)NC(C)=O)C(=O)N[C@@H](CC(N)=O)C(=O)N[C@@H](CC(C)C)C(=O)N[C@H](C(=O)N[C@H](C(=O)N[C@@H](CCCNC(=N)N)C(=O)N[C@@H](CCC(N)=O)C(=O)N[C@@H](CCCNC(=N)N)C(=O)N[C@@H](Cc1ccc(O)cc1)C(N)=O)[C@@H](C)O)[C@@H](C)CC
notes: also called compound No. 36
B8: 4-Aminomethylbenzoyl-[Ala26, Ile28, Nle31]-PYY(25-36) (peptide)
peptide: [4Amb]RAYINL[Nle]TRQRY-NH2
modifications: N-terminus assumed
SMILES: CCCC[C@H](NC(=O)[C@H](CC(C)C)NC(=O)[C@H](CC(N)=O)NC(=O)[C@@H](NC(=O)[C@H](Cc1ccc(O)cc1)NC(=O)[C@H](C)NC(=O)[C@H](CCCNC(=N)N)NC(=O)c1ccc(CN)cc1)[C@@H](C)CC)C(=O)N[C@H](C(=O)N[C@@H](CCCNC(=N)N)C(=O)N[C@@H](CCC(N)=O)C(=O)N[C@@H](CCCNC(=N)N)C(=O)N[C@@H](Cc1ccc(O)cc1)C(N)=O)[C@@H](C)O
notes: also called compound No. 42
B9: [D-Leu24, Ala26, Ile28,31]-PYY(24-36) (peptide)
peptide: [dL]RAYINLITRQRY-NH2
modifications: N-terminus assumed
SMILES: CC[C@H](C)[C@H](NC(=O)[C@H](Cc1ccc(O)cc1)NC(=O)[C@H](C)NC(=O)[C@H](CCCNC(=N)N)NC(=O)[C@H](N)CC(C)C)C(=O)N[C@@H](CC(N)=O)C(=O)N[C@@H](CC(C)C)C(=O)N[C@H](C(=O)N[C@H](C(=O)N[C@@H](CCCNC(=N)N)C(=O)N[C@@H](CCC(N)=O)C(=O)N[C@@H](CCCNC(=N)N)C(=O)N[C@@H](Cc1ccc(O)cc1)C(N)=O)[C@@H](C)O)[C@@H](C)CC
notes: also called compound No. 24
B10: cyclo(28-32)-4-Aminomethylbenzoyl-[Lys28, Ile31, Glu32]-PYY(25-36) (peptide)
peptide: [4Amb]RHYKNLIERQRY-NH2
modifications: lactam 5-9; N-terminus assumed
SMILES: CC[C@H](C)[C@@H]1NC(=O)[C@H](CC(C)C)NC(=O)[C@H](CC(N)=O)NC(=O)[C@@H](NC(=O)[C@H](Cc2ccc(O)cc2)NC(=O)[C@H](Cc2c[nH]cn2)NC(=O)[C@H](CCCNC(=N)N)NC(=O)c2ccc(CN)cc2)CCCCNC(=O)CC[C@@H](C(=O)N[C@@H](CCCNC(=N)N)C(=O)N[C@@H](CCC(N)=O)C(=O)N[C@@H](CCCNC(=N)N)C(=O)N[C@@H](Cc2ccc(O)cc2)C(N)=O)NC1=O
notes: also called compound No. 26
B11: 4-Aminomethylbenzoyl-[Ala26, Ile28,31, Aib29]-PYY(25-36) (peptide)
peptide: [4Amb]RAYI[Aib]LITRQRY-NH2
modifications: N-terminus assumed
SMILES: CC[C@H](C)[C@H](NC(=O)[C@H](CC(C)C)NC(=O)C(C)(C)NC(=O)[C@@H](NC(=O)[C@H](Cc1ccc(O)cc1)NC(=O)[C@H](C)NC(=O)[C@H](CCCNC(=N)N)NC(=O)c1ccc(CN)cc1)[C@@H](C)CC)C(=O)N[C@H](C(=O)N[C@@H](CCCNC(=N)N)C(=O)N[C@@H](CCC(N)=O)C(=O)N[C@@H](CCCNC(=N)N)C(=O)N[C@@H](Cc1ccc(O)cc1)C(N)=O)[C@@H](C)O
notes: also called compound No. 46
B12: cyclo(27-31)-4-Aminomethylbenzoyl-[Glu27, Ile28, Lys31]-PYY(25-36) (peptide)
peptide: [4Amb]RHEINLKTRQRY-NH2
modifications: lactam 4-8; N-terminus assumed
SMILES: CC[C@H](C)[C@@H]1NC(=O)[C@@H](NC(=O)[C@H](Cc2c[nH]cn2)NC(=O)[C@H](CCCNC(=N)N)NC(=O)c2ccc(CN)cc2)CCC(=O)NCCCC[C@@H](C(=O)N[C@H](C(=O)N[C@@H](CCCNC(=N)N)C(=O)N[C@@H](CCC(N)=O)C(=O)N[C@@H](CCCNC(=N)N)C(=O)N[C@@H](Cc2ccc(O)cc2)C(N)=O)[C@@H](C)O)NC(=O)[C@H](CC(C)C)NC(=O)[C@H](CC(N)=O)NC1=O
notes: also called compound No. 25
B13: Ac-[D-Cha24, Ala26, Ile28,31]-PYY(24-36) (peptide)
peptide: Ac-[dCha]RAYINLITRQRY-NH2
SMILES: CC[C@H](C)[C@H](NC(=O)[C@H](Cc1ccc(O)cc1)NC(=O)[C@H](C)NC(=O)[C@H](CCCNC(=N)N)NC(=O)[C@@H](CC1CCCCC1)NC(C)=O)C(=O)N[C@@H](CC(N)=O)C(=O)N[C@@H](CC(C)C)C(=O)N[C@H](C(=O)N[C@H](C(=O)N[C@@H](CCCNC(=N)N)C(=O)N[C@@H](CCC(N)=O)C(=O)N[C@@H](CCCNC(=N)N)C(=O)N[C@@H](Cc1ccc(O)cc1)C(N)=O)[C@@H](C)O)[C@@H](C)CC
notes: also called compound No. 37

Assays:
[1] = target: T1, human Y2 receptor; experiment: cell-based or functional assay
[2] = target: T1, human Y2 receptor; experiment: RBA: [125I]-PYY displacement, hY2R/CHO membranes
In short: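 Bound radioligand was collected by filtration on PEI-treated GF/C filters, washed with Tris/MgCl₂/NaCl/CHAPS buffer pH 7.4, and counted by scintillation; IC₅₀ values were calculated.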

Row | Binder | GBA EC50 Ratio (vs PYY(3-36)), [35S]GTPγS [1] | IC50 Ratio (vs PYY(3-36)) [2]
1 | B1 | 8.7 ratio | 14 ratio
2 | B2 | 27 ratio | 71 ratio
3 | B3 | 3.6 ratio | 4.5 ratio
4 | B4 | 8.7 ratio | 15 ratio
5 | B5 | 2.6 ratio | 3.8 ratio
6 | {4‑(((imino(octylamino)methyl)amino)methyl)benzoyl}-RAYINLITRQRY-NH2 (also called compound No. 28) [4-({[imino(octylamino)methyl]amino}methyl)benzoyl-[Ala26, Ile28,31]-PYY(25-36)] | 12 ratio | 14 ratio
7 | B6 | 2.3 ratio | 4.6 ratio
8 | B7 | 13 ratio | 17 ratio
9 | B8 | 5.7 ratio | 10 ratio
10 | B9 | 9.4 ratio | 14 ratio
11 | B10 | 11 ratio | 18 ratio
12 | B11 | 34 ratio | 87 ratio
13 | B12 | 16 ratio | 30 ratio
14 | RYYASLRAYINLITRQRY-NH2 (also called compound No. 2) [[Ala26, Ile28,31]-PYY(19-36)] | 2.1 ratio | 4.9 ratio
15 | B13 | 4.6 ratio | 7.6 ratio

From US20120172293A1 (Takeda / Millennium, published 2012)
